Consider 2 molecules from patent publication US20230357386A1 (EISAI R AND D MANAGEMENT, published 2023).

Changes are numbered by the printed parent chain.

In assay [1] the target is human EphA4 fibronectin type III domain 1-MBP-His protein (human, UniProt P54764 326-439; P0AEX9 29-392 = MBP). Nature of the assay: ELISA, domain-MBP-His captured by anti-6-His antibody. On the procedure:
(§1) The antibody A, the antibody B, and human IgG (Sigma-Aldrich Co. LLC) were evaluated for their binding activity against each EphA4 according to the following steps. Each well of a 96-well plate (Nunc) was coated with a rabbit anti-6-His antibody (Bethyl Laboratories, Inc.). After incubation at room temperature for 1 hour, each well was blocked with 1% BlockAce (KAC Co., Ltd.) overnight at 4° C. After washing with 0.02% Tween 20/PBS three times, each of the human EphA4 extracellular domain-, human EphA4 ligand-binding domain-, human EphA4 fibronectin type III domain 1-, and human EphA4 fibronectin type III domain 2-MBP-His proteins or the MBP-His protein (final concentration: 1 nM) was seeded in each well and incubated at room temperature for 1 hour. After washing three times, the antibody A, the antibody B, or human IgG (10 nM) was added to each well and incubated at room temperature for 1 hour. After washing three times, a horseradish peroxidase-labeled rabbit anti-human IgG Fcy fragment antibody (Jackson ImmunoResearch Laboratories, Inc.) was added thereto and incubated at room temperature for 1 hour. After washing three times, a TMBZ (3,3′,5,5′-tetramethylbenzidine, Kirkegaard & Perry Laboratories, Inc.) solution was added to each well. An equal amount of a reaction stopping solution (2 N H₂SO₄, FUJIFILM Wako Pure Chemical Corp.) was added to each well. The absorbance at 450 nm and 650 nm was read using a microplate reader (Thermo Fisher Scientific Inc.).
(In an ELISA, binding on a coated surface is turned into a signal by an enzyme label.)

In assay [2] the target is human EphA4 fibronectin type III domain 2-MBP-His protein (human, UniProt P54764 436-547; P0AEX9 29-392 = MBP). The description is as above. On the procedure:
as §1

Assay [3] concerns the target T1, human EphA4 extracellular domain-MBP-His protein (human).
T1 construct: also called human EphA4 extracellular domain (ECD); ECD
Nature of the assay: ELISA, domain-MBP-His captured by anti-6-His antibody, antibody 10 nM. On the procedure: as §1, with “An equal amount of a reaction stopping solution (2 N H₂SO₄, FUJIFILM Wako Pure Chemical Corp.) was added to each well.” left out

Assay [4] addresses T2, human EphA4 extracellular domain-SEAP-His protein (human).
T2 construct: also called Human EphA4 extracellular domain-SEAP-His10
Nature of the assay: competition ELISA, captured human EphA4 ECD-SEAP-His; competitor biotinylated human Ephrin A5-Fc (0.7 nM). On the procedure: (§2) The antibody A and the antibody B were evaluated for their inhibitory activity against the binding between human EphA4 and its human ligand according to the following steps. Each well of a 96-well plate (Nunc) was coated with an anti-alkaline phosphatase antibody (Thermo Fisher Scientific Inc.). After incubation overnight at 4° C., each well was blocked with 1% BlockAce (KAC Co., Ltd.) overnight at 4° C. After washing with 0.02% Tween 20/PBS three times, the human EphA4 extracellular domain-SEAP-His protein (final concentration: 10 nM) was seeded in each well and incubated at room temperature for 1 hour. After washing three times, ligands and serially diluted antibody A or antibody B (0, 0.003, 0.01, 0.03, 0.1, 0.3, 1, 3, 10, 30, 100, 300, 1000, and 3000 nM) were added to each well. The ligands used were biotinylated human Ephrin A5-Fc chimera (R&D Systems, Inc., final concentration: 0.7 nM) and biotinylated human Ephrin B3-Fc chimera (R&D Systems, Inc., final concentration: 2.3 nM). After incubation at room temperature for 1 hour and subsequent washing three times, a horseradish peroxidase-labeled streptavidin (GE Healthcare Japan Corp.) was added thereto and incubated at room temperature for 1 hour. […] The absorbance at 450 nm was read using a microplate reader (Thermo Fisher Scientific Inc.).

For assay [5], the target named is T2, human EphA4 extracellular …. Kind of assay: competition ELISA, captured human EphA4 ECD-SEAP-His; competitor biotinylated human Ephrin B3-Fc (2.3 nM). On the procedure: as §2
The target is the same in assay [6]. Kind of assay: SPR (Biacore T200), EphA4 ECD-SEAP-His10 captured by anti-His antibody, antibody as analyte, 1:1 model, mean of three runs. On the procedure: The binding affinity of the antibody A and the antibody B to human EphA4 was determined by surface plasmon resonance (SPR) using Biacore T200 (Cytiva). First, an anti-His antibody (Cytiva, 28-9950-56) was immobilized on sensor chip CM5. The immobilization was performed by the amine coupling method using N-hydroxysuccinimide (NHS) and N-ethyl-N′-(3-dimethylaminopropyl)carbodiimide hydrochloride (EDC). Ethanolamine was used in blocking (the sensor chip and the reagents for immobilizations were all manufactured by Cytiva). The antibody was diluted with a buffer solution for immobilization (10 mM sodium acetate, pH 4.5) into 3 µg/mL and immobilized on the sensor chip according to the protocol attached to Biacore T200. Human EphA4 extracellular domain-SEAP-His10 was diluted with a running buffer solution HBS-EP+ (Cytiva, BR-1001-69), injected onto a flow cell for 120 seconds, and captured (amount of the antibody captured: approximately 6 RU). Subsequently, the antibody A or the antibody B serially diluted in the range of 100, 50, 25, 12.5, 6.3, 3.2, 1.6, and 0 nM using HBS-EP+ was added to the sensor chip for 120 seconds. […] The experiment mentioned above was carried out three times, and an average value of each parameter was calculated.
In general terms: In SPR one partner is held on a chip, and binding of the other changes the refractive index at the surface.

In assay [7] the target is T3, rat EphA4 extracellular domain-SEAP-His protein (rat, UniProt Q03137 20-547 (mouse entry)).
T3 construct: not shown: SEAP and histidine tag
Kind of assay: ELISA: rat EphA4 extracellular domain-SEAP-His captured by anti-6-His antibody, detection with HRP anti-human IgG Fc. On the procedure: (§3) The antibody A and the antibody B were evaluated for their binding activity against each EphA4 according to the following steps. Each well of a 96-well plate (Nunc) was coated with a rabbit anti-6-His antibody (Bethyl Laboratories, Inc.). After incubation at room temperature for 1 hour, each well was blocked with 1% BlockAce (KAC Co., Ltd.) overnight at 4° C. After washing with 0.02% Tween 20/PBS three times, each of the mouse, rat, monkey and human EphA4 extracellular domain-SEAP-His proteins (final concentration: 1 nM) was seeded in each well and incubated at room temperature for 1 hour. After washing three times, the antibody A or the antibody B (0, 0.00013, 0.00064, 0.0032, 0.016, 0.08, 0.4, 2, and 10 µg/mL) was added to each well and incubated at room temperature for 1 hour. After washing three times, a horseradish peroxidase-labeled rabbit anti-human IgG Fcy fragment antibody (Jackson ImmunoResearch Laboratories, Inc.) was added thereto and incubated at room temperature for 1 hour. After washing three times, a TMBZ (3,3′,5,5′-tetramethylbenzidine, Kirkegaard & Perry Laboratories, Inc.) solution was added to each well. An equal amount of a reaction stopping solution (2 N H₂SO₄, FUJIFILM Wako Pure Chemical Corp.) was added to each well. The absorbance at 450 nm was read using a microplate reader (Thermo Fisher Scientific Inc.).

Assay [8] deals with T2, human EphA4 extracellular …. Nature of the assay: ELISA: human EphA4 extracellular domain-SEAP-His captured by anti-6-His antibody, detection with HRP anti-human IgG Fc. On the procedure: as §3
The target of assay [9] is T4, mouse EphA4 extracellular domain-SEAP-His protein (mouse, UniProt Q03137 20-547).
T4 construct: not shown: SEAP and histidine tag
Nature of the assay: ELISA: mouse EphA4 extracellular domain-SEAP-His captured by anti-6-His antibody, detection with HRP anti-human IgG Fc. On the procedure: as §3

Assay [10] addresses T5, monkey EphA4 extracellular domain-SEAP-His protein (monkey).
T5 construct: not shown: SEAP and histidine tag
Nature of the assay: ELISA: monkey EphA4 extracellular domain-SEAP-His captured by anti-6-His antibody, detection with HRP anti-human IgG Fc. On the procedure:
as §3

Assay [11] concerns the target T2, human EphA4 extracellular …. Nature of the assay: SPR (Biacore T200): human EphA4 extracellular domain-SEAP-His10 captured by anti-His antibody on CM5, antibody as analyte 1.6-100 nM, 1:1 fit. On the procedure: The binding affinity of the antibody A and the antibody B to human EphA4 was determined by surface plasmon resonance (SPR) using Biacore T200 (Cytiva). First, an anti-His antibody (Cytiva, 28-9950-56) was immobilized on sensor chip CM5. The immobilization was performed by the amine coupling method using N-hydroxysuccinimide (NHS) and N-ethyl-N′-(3-dimethylaminopropyl)carbodiimide hydrochloride (EDC). Ethanolamine was used in blocking (the sensor chip and the reagents for immobilizations were all manufactured by Cytiva). The antibody was diluted with a buffer solution for immobilization (10 mM sodium acetate, pH 4.5) into 3 µg/mL and immobilized on the sensor chip according to the protocol attached to Biacore T200. Human EphA4 extracellular domain-SEAP-His10 was diluted with a running buffer solution HBS-EP+ (Cytiva, BR-1001-69), injected onto a flow cell for 120 seconds, and captured (amount of the antibody captured: approximately 6 RU). Subsequently, the antibody A or the antibody B serially diluted in the range of 100, 50, 25, 12.5, 6.3, 3.2, 1.6, and 0 nM using HBS-EP+ was added to the sensor chip for 120 seconds. Binding reaction curves were sequentially observed at the time of the addition (association phase, 120 sec) and after the completion of the addition (dissociation phase, 600 sec). After the completion of each observation, the sensor chip was regenerated by the addition of 3 M MgCl₂ (60 sec). The obtained binding reaction curves were subjected to fitting analysis using 1:1 binding models and software BIA evaluation attached to the system to calculate the binding affinity (KD = kd / ka) to human EphA4. The experiment mentioned above was carried out three times, and an average value of each parameter was calculated.

T2 sequence (chain, as listed by the source limits assumed): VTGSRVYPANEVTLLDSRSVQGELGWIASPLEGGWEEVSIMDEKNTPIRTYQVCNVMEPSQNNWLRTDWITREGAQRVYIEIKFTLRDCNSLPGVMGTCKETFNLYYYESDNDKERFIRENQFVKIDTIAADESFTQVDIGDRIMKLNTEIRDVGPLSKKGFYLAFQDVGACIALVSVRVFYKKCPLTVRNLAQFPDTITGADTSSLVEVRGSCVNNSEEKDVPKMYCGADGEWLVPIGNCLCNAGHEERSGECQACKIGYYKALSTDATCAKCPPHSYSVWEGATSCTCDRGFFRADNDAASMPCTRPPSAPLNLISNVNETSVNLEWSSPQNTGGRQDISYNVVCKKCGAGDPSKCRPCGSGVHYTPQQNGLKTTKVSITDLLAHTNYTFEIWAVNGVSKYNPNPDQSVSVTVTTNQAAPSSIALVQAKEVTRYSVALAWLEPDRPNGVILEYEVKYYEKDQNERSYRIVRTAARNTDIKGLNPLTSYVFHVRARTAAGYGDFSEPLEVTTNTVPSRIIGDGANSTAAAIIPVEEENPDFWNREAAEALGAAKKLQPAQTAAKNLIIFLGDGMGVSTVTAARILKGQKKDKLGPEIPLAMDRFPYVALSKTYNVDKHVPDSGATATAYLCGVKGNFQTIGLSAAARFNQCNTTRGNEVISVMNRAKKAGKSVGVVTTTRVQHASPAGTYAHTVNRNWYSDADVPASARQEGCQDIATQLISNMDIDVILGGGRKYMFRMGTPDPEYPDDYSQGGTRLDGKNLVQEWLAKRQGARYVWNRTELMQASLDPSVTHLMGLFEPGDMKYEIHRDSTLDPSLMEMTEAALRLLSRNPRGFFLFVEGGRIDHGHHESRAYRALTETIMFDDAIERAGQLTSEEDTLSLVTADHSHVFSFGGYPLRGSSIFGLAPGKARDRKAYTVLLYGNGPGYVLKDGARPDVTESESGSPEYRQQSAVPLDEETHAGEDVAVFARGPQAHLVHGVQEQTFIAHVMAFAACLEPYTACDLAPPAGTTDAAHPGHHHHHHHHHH
T5 sequence (chain, as listed by the source): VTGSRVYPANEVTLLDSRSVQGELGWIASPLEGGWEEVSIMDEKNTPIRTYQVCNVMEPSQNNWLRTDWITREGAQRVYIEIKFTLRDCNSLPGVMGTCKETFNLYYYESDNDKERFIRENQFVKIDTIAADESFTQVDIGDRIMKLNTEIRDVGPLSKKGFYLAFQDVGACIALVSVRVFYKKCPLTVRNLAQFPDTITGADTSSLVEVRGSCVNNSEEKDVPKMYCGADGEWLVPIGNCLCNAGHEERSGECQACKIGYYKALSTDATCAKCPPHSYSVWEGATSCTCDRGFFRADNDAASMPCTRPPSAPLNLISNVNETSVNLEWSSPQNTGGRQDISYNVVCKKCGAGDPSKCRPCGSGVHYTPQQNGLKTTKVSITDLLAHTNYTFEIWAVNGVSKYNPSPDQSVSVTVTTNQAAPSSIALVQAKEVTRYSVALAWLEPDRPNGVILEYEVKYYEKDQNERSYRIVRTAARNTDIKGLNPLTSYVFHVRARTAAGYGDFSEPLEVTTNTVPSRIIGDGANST

B1: antibody A (human anti-EphA4 monoclonal antibody) (antibody, V domains shown)
VH: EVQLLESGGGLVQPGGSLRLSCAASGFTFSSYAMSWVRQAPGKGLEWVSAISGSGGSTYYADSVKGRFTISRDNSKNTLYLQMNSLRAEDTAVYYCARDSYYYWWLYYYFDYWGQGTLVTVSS
VL: SSELTQDPAVSVALGQTVRITCQGDSLRSYYASWYQQKPGQAPVLVIYGKNNRPSGIPDRFSGSSSGNTASLTITGAQAEDEADYYCQSSYSSSYSYVFGGGTKLTVLG
notes: Human IgG2 / lambda, from a phage library scFv converted to IgG; made in Expi293F or CHOK1SV cells
In general, IC50 refers to the concentration needed to halve the response being measured. One may read the Kd as the free concentration of one partner at which half of the binding sites on the other are occupied at equilibrium, for simple one-to-one binding. As usually defined, the EC50 (read off the curve) is the midpoint of the concentration-response curve. Broadly, the koff is the first-order rate constant of dissociation. By kon is commonly meant a measure of how fast the partners come together. With B1, the binding result in assay [1] was “no binding (tested: 10 nM)”; in assay [2], “no binding (tested: 10 nM)”; in assay [3], “binds”. Besides, the 50% inhibitory concentration (IC50) came out at 3900 pM in assay [4] and 3000 pM in assay [5]. The same molecule yielded a Kd in [6] of 467 pM. Further, the concentration for a half-maximal effect (EC50 (read off the curve)) in assay [7], in [8], in assay [9] and in [10] was around 20 pM throughout. Besides, in assay [11], the off-rate constant (koff) came out at 0.000251 s⁻¹. The molecule further displayed an on-rate constant (kon) in assay [11] of 537000 M⁻¹ s⁻¹.

B2: antibody B (human anti-EphA4 monoclonal antibody) (antibody, human IgG1, lambda, V domains shown)
VH: EVQLLESGGGLVQPGGSLRLSCAASGFTFSSFAMSWVRQAPGKGLEWVSAISGSGGSTYYADSVKGRFTISRDNSKNTLYLQMNSLRAEDTAVYYCARDDYYPYWWYYYYFDYWGQGTLVTVSS
VL: B1 VL with Y31F
notes: Human IgG1/2 (IgG1 CH1 and hinge, IgG2 CH2 and CH3) / lambda; made in Expi293F or CHOK1SV cells
With B2, the binding result is recorded as “no binding (tested: 10 nM)” in [1], “no binding (tested: 10 nM)” in assay [2] and “binds” in assay [3]. The IC50 came to 4800 pM in assay [4] and 4100 pM in assay [5]. In addition, the Kd in assay [6] was 156 pM. Moreover, the “EC50 (read off the curve)” value in assay [7], in assay [8], in [9] and in assay [10] was around 40 pM in each case. Besides, the koff in assay [11] was found to be 8.01e-05 s⁻¹. The same molecule displayed a kon in [11] of 512000 M⁻¹ s⁻¹.
